# B1: Tsc1-D-His6 (domain or fragment, UniProt Q92574 998-1164, looked up)
# chain: DGCSDSMVGHNEEASGHNGETKTPRPSSARGSSGSRGGGGSSSSSSELSTPEKPPHQRAGPFSSRWETTMGEASASIPTTVGSLPSSKSFLGMKARELFRNKSESQCDEDGMTSSLSESLKTELGKDLGVEAKIPLNLDGPHPSPPTPDSVGQLHIMDYNETHHEHS
# notes: predicted monomer 22.1 kDa; dimer by gel filtration; also called fragment D; source: E. coli Tuner pLysS, purified (Ni-NTA)
# Target: the molecule itself
# Assay: SEC; Tsc1-D-His6 concentrated to 10 mg/ml, Superdex 75 gel filtration
protein,measurement,value
B1,stoichiometry N,2

# Reference: paper PMC5730846, “Tumor suppressor Tsc1 is a new Hsp90 co‐chaperone that facilitates folding of kinase and non‐kinase clients” (The EMBO Journal, 2017)
